These results are taken from the RNAGym collection of RNA variant scans (doi:10.1093/molbev/msab373).

The chains are these.
B1: Azoarcus group I ribozyme (parent)
chain: GUGCCUUGCGCCGGGAAACCACGCAAGGGAUGGUGUCAAAUUCGGCGAAACCUAAGCGCCCGCCCGGGCGUAUGGCAACGCCGAGCCAAGCUUCGGCGCCUGCGCCGAUGAAGGUGUAGAGACUAGACGGCACCCACCUAAGGCAAACGCUAUGGUGAAGGCAUAGUCCAGGGAGUGGCGAAAGUCACACAAACCGG

This data set covers variants of B1. The data set is described as follows: reverse-splicing fitness (ratio to wild type); higher = more active; in vitro selection; Mg2+ level not given. The method in brief:
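An in vitro group I ribozyme library with randomized positions was T7-transcribed and gel-purified. In triplicate, 10 pmol RNA in EPPS pH 7.5 was reacted with 50 pmoles of a 30-nt RNA substrate for 1 h at 37 °C across several added MgCl2 levels (1–48 mM), then stopped with EDTA. Products were reverse transcribed from a substrate-complementary primer, PCR-amplified and sequenced (HiSeq 4000). Fitness is a variant's read proportion after selection over that before, normalised to wild type.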
GUGCCUUGCGCCGGGAAACCACGCAAGGGAUGGUGUCAAAUUCGGCGAAACCUAAGCGCCCGCCCGGGCGUAUGGCAACGCUGAGCCAAGCUUCGGCGCCUGCGCCGAUGUAGGUGUAGUGACUAGACGGCACCCACCUAAGGCAAACGAUAUGGUGAAGGCAUAGUCAAGGGAGUGGCGAAAGUCACACAAACCGG [C82U A111U A120U C150A C169A]: the reverse-splicing fitness stood at 0.00469. As to GUGCCUUGCGCCGGGAAACCACGCAAGGGAUGGUGUCAAAUUCGGCGAAACCUAAGCGCCCGCCCGGGCGUAUGGCAACGCAGAGCCAAGCUUCGGCGCCUGCGCCGAUGAAGGUGUAGGGACUAGACGGCACCCACCUAAGGCUAACGCUAUGGUGAAGGCAUAGUCAAGGGAGGGGCGAAAGUCACACAAACCGG [C82A A120G A145U C169A U176G], the reverse-splicing fitness was found to be 0.00321. Take GUGCCUUGCGCCGGGAAACCACGCAAGGGAUGGUGUCAAAUUCGGCGAAACCUAAGCGCCCGCCCGGGCGUAUGGCAACGCAGAGCCAAGCUUCGGCGCCUGCGCCGAUGAAGGUGUAGUGACUAGACGGCACCCACCUAAGGCCAACGCUAUGGUGAAGGCAUAGUCAAGGGAGAGGCGAAAGUCACACAAACCGG [C82A A120U A145C C169A U176A]: the reverse-splicing fitness came to 0.00193. To GUGCCUUGCGCCGGGAAACCACGCAAGGGAUGGUGUCAAAUUCGGCGAAACCUAAGCGCCCGCCCGGGCGUAUGGCAACGCCGAGCCAAGCUUCGGCGCCUGCGCCGAUGCAGGUGUAGUGACUAGACGGCACCCACCUAAGGCGAACGGUAUGGUGAAGGCAUAGUCCAGGGAGUGGCGAAAGUCACACAAACCGG [A111C A120U A145G C150G] belongs 0.0721; to GUGCCUUGCGCCGGGAAACCACGCAAGGGAUGGUGUCAAAUUCGGCGAAACCUAAGCGCCCGCCCGGGCGUAUGGCAACGCGGAGCCAAGCUUCGGCGCCUGCGCCGAUGGAGGUGUAGUGACUAGACGGCACCCACCUAAGGCCAACGGUAUGGUGAAGGCAUAGUCGAGGGAGGGGCGAAAGUCACACAAACCGG [C82G A111G A120U A145C C150G C169G U176G], 0.00196; to GUGCCUUGCGCCGGGAAACCACGCAAGGGAUGGUGUCAAAUUCGGCGAAACCUAAGCGCCCGCCCGGGCGUAUGGCAACGCCGAGCCAAGCUUCGGCGCCUGCGCCGAUGAAGGUGUAGAGACUAGACGGCACCCACCUAAGGCCAACGAUAUGGUGAAGGCAUAGUCCAGGGAGGGGCGAAAGUCACACAAACCGG [A145C C150A U176G], 0.14. Turning to GUGCCUUGCGCCGGGAAACCACGCAAGGGAUGGUGUCAAAUUCGGCGAAACCUAAGCGCCCGCCCGGGCGUAUGGCAACGCCGAGCCAAGCUUCGGCGCCUGCGCCGAUGCAGGUGUAGUGACUAGACGGCACCCACCUAAGGCGAACGAUAUGGUGAAGGCAUAGUCAAGGGAGGGGCGAAAGUCACACAAACCGG [A111C A120U A145G C150A C169A U176G], the reverse-splicing fitness was determined as 0.00318. Consider GUGCCUUGCGCCGGGAAACCACGCAAGGGAUGGUGUCAAAUUCGGCGAAACCUAAGCGCCCGCCCGGGCGUAUGGCAACGCUGAGCCAAGCUUCGGCGCCUGCGCCGAUGUAGGUGUAGCGACUAGACGGCACCCACCUAAGGCAAACGCUAUGGUGAAGGCAUAGUCGAGGGAGUGGCGAAAGUCACACAAACCGG [C82U A111U A120C C169G], for which the reverse-splicing fitness was determined as 0.00824.

In the case of GUGCCUUGCGCCGGGAAACCACGCAAGGGAUGGUGUCAAAUUCGGCGAAACCUAAGCGCCCGCCCGGGCGUAUGGCAACGCGGAGCCAAGCUUCGGCGCCUGCGCCGAUGGAGGUGUAGCGACUAGACGGCACCCACCUAAGGCGAACGCUAUGGUGAAGGCAUAGUCAAGGGAGAGGCGAAAGUCACACAAACCGG [C82G A111G A120C A145G C169A U176A], the reverse-splicing fitness worked out at 0.0151. For GUGCCUUGCGCCGGGAAACCACGCAAGGGAUGGUGUCAAAUUCGGCGAAACCUAAGCGCCCGCCCGGGCGUAUGGCAACGCUGAGCCAAGCUUCGGCGCCUGCGCCGAUGGAGGUGUAGCGACUAGACGGCACCCACCUAAGGCGAACGUUAUGGUGAAGGCAUAGUCGAGGGAGAGGCGAAAGUCACACAAACCGG [C82U A111G A120C A145G C150U C169G U176A] the value was 0.0191. GUGCCUUGCGCCGGGAAACCACGCAAGGGAUGGUGUCAAAUUCGGCGAAACCUAAGCGCCCGCCCGGGCGUAUGGCAACGCAGAGCCAAGCUUCGGCGCCUGCGCCGAUGAAGGUGUAGGGACUAGACGGCACCCACCUAAGGCGAACGCUAUGGUGAAGGCAUAGUCGAGGGAGUGGCGAAAGUCACACAAACCGG [C82A A120G A145G C169G]: the reverse-splicing fitness amounted to 0.0223. GUGCCUUGCGCCGGGAAACCACGCAAGGGAUGGUGUCAAAUUCGGCGAAACCUAAGCGCCCGCCCGGGCGUAUGGCAACGCCGAGCCAAGCUUCGGCGCCUGCGCCGAUGGAGGUGUAGAGACUAGACGGCACCCACCUAAGGCAAACGAUAUGGUGAAGGCAUAGUCAAGGGAGGGGCGAAAGUCACACAAACCGG [A111G C150A C169A U176G]: the reverse-splicing fitness is 0.00678. Turning to GUGCCUUGCGCCGGGAAACCACGCAAGGGAUGGUGUCAAAUUCGGCGAAACCUAAGCGCCCGCCCGGGCGUAUGGCAACGCGGAGCCAAGCUUCGGCGCCUGCGCCGAUGCAGGUGUAGUGACUAGACGGCACCCACCUAAGGCCAACGCUAUGGUGAAGGCAUAGUCAAGGGAGGGGCGAAAGUCACACAAACCGG [C82G A111C A120U A145C C169A U176G], the reverse-splicing fitness was 0.00216. Consider GUGCCUUGCGCCGGGAAACCACGCAAGGGAUGGUGUCAAAUUCGGCGAAACCUAAGCGCCCGCCCGGGCGUAUGGCAACGCCGAGCCAAGCUUCGGCGCCUGCGCCGAUGGAGGUGUAGAGACUAGACGGCACCCACCUAAGGCAAACGCUAUGGUGAAGGCAUAGUCAAGGGAGUGGCGAAAGUCACACAAACCGG [A111G C169A], for which the reverse-splicing fitness was found to be 0.0602.

Turning to GUGCCUUGCGCCGGGAAACCACGCAAGGGAUGGUGUCAAAUUCGGCGAAACCUAAGCGCCCGCCCGGGCGUAUGGCAACGCAGAGCCAAGCUUCGGCGCCUGCGCCGAUGAAGGUGUAGCGACUAGACGGCACCCACCUAAGGCAAACGAUAUGGUGAAGGCAUAGUCUAGGGAGGGGCGAAAGUCACACAAACCGG [C82A A120C C150A C169U U176G], the reverse-splicing fitness worked out at 0.00644.
